Key:
Experiment in all cases: co-sedimentation
[1] = target: P0mutII (P0 with I241Q/L248Q in helix II) (Bombyx mori)
[2] = target: Bombyx mori ribosomal protein P0 (full-length) (Bombyx mori)
[3] = target: P0mutI (P0 with F215Q/V222Q in helix I) (Bombyx mori)

stoichiometry N (copies of P2 per 50S particle) [1]: 1.14
stoichiometry N (copies of P2 per 50S particle) [2]: 2.22
stoichiometry N (copies of P2 per 50S particle) [3]: 1.04
Substance: P1–[32P]P2 heterodimer (complex)

Source: paper PMC3616719
